The values that follow come from PMC7192382.

This data set relates to MtKNOX3 homeodomain (Medicago truncatula). In words: SPR. Particulars: SPR: PBS (150 mM NaCl, 2 mM Na2HPO4)/Tween pH 7.4, BSA 670 ug/ml, protein 0-10 uM, temperature not stated; EMSA: LightShift binding buffer (stock as printed …).
Regarding LOG2-1 (MtLOG2 promoter site), the dissociation constant Kd (commonly a measure of binding affinity in units of concentration) is 28000 nM. The result for LOG1 (MtLOG1 first intron site) reads 555 nM. The figure for IPT3-1 (MtIPT3 promoter site) is 2220 nM.
